Reference: patent US20020160949A1 (WHITEHEAD INSTITUTE FOR BIOMEDICAL RESEARCH, published 2002)

Tests used:
murine IL-7Rα = biological target: T1, murine IL-7Rα (murine, UniProt P16872 21-459); assay: affinity labeling of transfected 293 cells with 125I-TSLP, DSS cross-linking, SDS-PAGE
T1 construct: whole, on cells; Expressed alone on transfected 293 cells; also called murine IL-7Rα alone
T1 sequence (looked up): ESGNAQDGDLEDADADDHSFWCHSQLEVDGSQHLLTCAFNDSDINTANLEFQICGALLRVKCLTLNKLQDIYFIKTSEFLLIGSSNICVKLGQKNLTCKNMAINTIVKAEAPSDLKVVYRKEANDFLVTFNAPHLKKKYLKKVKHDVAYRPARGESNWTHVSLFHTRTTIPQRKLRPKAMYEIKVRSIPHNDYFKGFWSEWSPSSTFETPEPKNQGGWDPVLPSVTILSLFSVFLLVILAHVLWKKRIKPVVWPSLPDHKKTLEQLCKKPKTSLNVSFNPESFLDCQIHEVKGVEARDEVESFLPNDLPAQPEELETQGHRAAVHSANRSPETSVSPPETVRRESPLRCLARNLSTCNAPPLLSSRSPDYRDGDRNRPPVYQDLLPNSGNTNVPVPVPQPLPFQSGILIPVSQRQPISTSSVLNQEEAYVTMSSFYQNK
Procedure: The binding of TSLP to TSLPR polypeptide in the presence of IL-7Rα was examined in affinity labeling assays. Affinity labeling assays were performed by adding 1-5 nM of ¹²⁵I-labeled TSLP to 5×10⁶ 293 cells transfected with expression constructs for murine IL-7Rα, murine TSLPR polypeptide, murine IL-7Rα and murine TSLPR polypeptide, or human IL-7Rα and murine TSLPR polypeptide. Iodinated TSLP was prepared by adding IODO-GEN (Pierce, Rockford, Ill.) and 2 mCi ¹²⁵I to 1 μg of TSLP. A specific activity of approximately 200-300 μCi/μg was obtained by this method. Prior to affinity labeling, 293 cells were transiently transfected using the calcium phosphate method (Eppendorf-5 Prime, Boulder, Colo.). Following a 2 hour incubation with ¹²⁵I-TSLP, cells were cross-linked with 0.1 mg/ml disuccinimidyl suberate (Pierce), lysed in lysis buffer, and the lysates resolved by SDS-PAGE.

[1] = biological target: T2, TSLP receptors constitutively expressed on NAG8/7 cells; assay: displacement binding of 125I-TSLP by unlabeled TSLP on NAG8/7 cells, Scatchard transformation
T2 construct: also called single class of receptors
T2 sequence (Q8CII9 20-359): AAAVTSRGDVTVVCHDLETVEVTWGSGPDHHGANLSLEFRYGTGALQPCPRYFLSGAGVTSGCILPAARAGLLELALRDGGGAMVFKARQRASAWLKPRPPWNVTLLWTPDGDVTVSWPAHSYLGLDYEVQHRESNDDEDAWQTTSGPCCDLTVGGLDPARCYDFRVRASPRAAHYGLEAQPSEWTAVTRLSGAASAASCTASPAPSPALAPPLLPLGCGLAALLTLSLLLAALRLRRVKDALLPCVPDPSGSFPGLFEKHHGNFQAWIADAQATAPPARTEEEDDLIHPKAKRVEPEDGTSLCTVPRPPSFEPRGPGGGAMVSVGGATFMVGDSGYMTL
Procedure: The binding of TSLP to 293 cells transfected with murine IL-7Rα and murine TSLPR polypeptide, or murine IL-7Rα alone, was analyzed in a displacement binding assay. Following two washes, 1×10⁶transfected 293 cells were incubated in a constant amount of ¹²⁵I-labeled TSLP (approximately 20,000 cpm) and varying amounts of unlabeled TSLP. Following a 3 hour incubation, treated cells were separated from the medium by centrifugation in olive oil and N-butylphthalate. Cell-bound radioactivity was measured using a gamma counter.
Analysis of binding data by Scatchard transformation was performed using the LIGAND computer program (Munson and Rodbard, 1980, Anal. Biochem. 107:220-39). […] Due to the very low binding activity of TSLP for cells expressing TSLPR polypeptide alone, it was not possible to determine the Kd for these cells. Displacement binding assays were also performed using NAG8/7 cells, which constitutively express TSLP receptors and proliferate in response to TSLP (Friend et al., supra; Levin et al., supra). In these displacement binding assays, 5×10⁶ NAG8/7 cells were incubated in a constant amount of ¹²⁵I-labeled TSLP (approximately 180,000 cpm) and varying amounts of unlabeled TSLP. The remainder of the assay was performed as described herein.

- Kd [1]: ~2.2 nM
B1: Thymic stromal lymphopoietin (TSLP) (ligand, UniProt Q9JIE6 20-140, looked up)
chain: YNFSNCNFTSITKIYCNIIFHDLTGDLKGAKFEQIEDCESKPACLLKIEYYTLNPIPGCPSLPDKTFARRTREALNDHCPGYPETERNDGTQEMAQEVQNICLNQTSQILRLWYSFMQSPE
- binding result (murine IL-7Rα): no binding (tested: 1-5 nM of 125I-labeled TSLP)
